Results from PMC6333409, “Crystal structure of chloramphenicol-metabolizing enzyme EstDL136 from a metagenome” (PLoS ONE, 2019).

Test system: CC(=O)Oc1ccc([N+](=O)[O-])cc1
Experiment: purified protein
Format: biochemical, uncultured bacterium pDL136
Conditions: 50 mM Tris pH 8.0, 30°C, ~2 nM enzyme, value in parentheses is standard error

Substance | Km | kcat | kcat/Km
EstDL136 (wild-type full-length) (uncultured bacterium pDL136; L206A) | 0.40 (0.030) mM | 547 s⁻¹ | 1.4e+06 M⁻¹ s⁻¹
EstDL136 (wild-type full-length) (uncultured bacterium pDL136; F214A) | 0.55 (0.051) mM | 641 s⁻¹ | 1.2e+06 M⁻¹ s⁻¹
EstDL136 (wild-type full-length) (uncultured bacterium pDL136) | 0.14 (0.016) mM | 622 s⁻¹ | 4.4e+06 M⁻¹ s⁻¹
